The target in one experiment is T1, hGal-7/Bcl-2 heterodimer (Homo sapiens, UniProt P47929).
T1 construct: host or cells: E. coli BL21 (DE3) (hGal-7)
The experiment in a line: hGal-7/Bcl-2 heterodimer disruption, low-SDS Western blotting with anti-Gal-7 antibody. The format is biochemical. The conditions noted are these: hGal-7 and Bcl-2 each 0.5 μM, especially at the highest dose of 500 μM, FIG. 12C. Here is the method: FIGS. 12A to 12C show the dose-dependent disruption of the hGal-7/Bcl-2 heterodimer in the presence of the hGal-7(129-135) peptide. FIGS. 12A and 12B: detection of hGal-7/Bcl-2 heterodimers in the presence of the indicated amounts of recombinant Bcl-2 using an anti-gal-7 antibody (FIG. 12A) or an anti-Bcl-2 antibody (FIG. 12B). FIG. 12C: the recombinant hGal-7 and Bcl-2 (each at 0.5 μM) were incubated with increasing concentrations of hGal-7(129-135) in 20 mM potassium phosphate buffer (pH 7.1). The effect of hGal-7(129-135) on the homodimerization and heterodimerization (with Bcl-2) of hGal-7 was assessed by Western blotting in low-SDS conditions with an anti-Gal-7 antibody.
Production of recombinant hGal-7 and hGal-1. Human Gal-7 cDNA was cloned into pET-22b(+) using Ndel and HindIII restriction enzymes. Human pET-Gal-1 vector was generously donated by Dr. S. Sato (McGill University, QC, Canada). The proteins were produced in E. coli BL21 (DE3) cells at 37° C. Isopropyl p-D-1-thiogalactopyranoside (IPTG) (1 mM) was added to the bacterial culture at OD600nm=0.6-0.7 and then incubated for 4 h at 37° C. to allow protein production. […] Purified fractions were analyzed by SDS-PAGE. […]
(In general: A western blot detects proteins with antibodies after separation by electrophoresis.)

The test system of a further experiment is Jurkat T cells. As to the kind of experiment: hGal-7-induced apoptosis of Jurkat T cells, Annexin V/PI flow cytometry. The format is cell-based. The note with it: 4 h at 37° C., FIGS. 5B and 5C. Here is the method:
Apoptosis assays with Annexin V/PI staining. Apoptosis was measured by flow cytometry using FITC-labeled Annexin V (Biolegend®, San Diego, Calif., USA) and propidium iodide. Briefly, the corresponding dilutions of recombinant hGal-7 and hGal-7(129-135) peptides were pre-incubated for 1 h at 4° C. in serum-free RPMI 1640 medium. 2.5×10^5 Jurkat cells were then harvested in the same medium and incubated with their corresponding dilutions at 37° C. for 4 h. Cells were washed once in PBS and once in binding buffer (0.01 M HEPES, 0.14 M NaCl, 2.5 mM CaCl2, pH 7.4). Cells were then incubated for 15 min with Annexin V in the dark at room temperature. A total of 400 μL of binding buffer containing 0.25 μg/mL propidium iodide was added to the cells before analysis by flow cytometry.
It was thus tested whether hGal-7(129-135) could modulate the binding of hGal-7 on Jurkat T cells, a cell model that is commonly used to test the pro-apoptotic activity of galectins. For this purpose, recombinant hGal-7 was labeled with fluorescein isothiocyante (FITC) and its binding on the surface of Jurkat T cells was measured by flow cytometry in absence or presence of increasing concentrations of hGal-7(129-135). […] The effect of hGal-7(129-135) was specific, statistically significant (FIG. 4B), and consistent with the increased number of monomers, which bind to surface glycosylated receptors through their CRDs. […]
In general terms: A flow cytometer gives signals particle by particle.

T1 sequence (P47929 2-136 limits assumed, one chain of several): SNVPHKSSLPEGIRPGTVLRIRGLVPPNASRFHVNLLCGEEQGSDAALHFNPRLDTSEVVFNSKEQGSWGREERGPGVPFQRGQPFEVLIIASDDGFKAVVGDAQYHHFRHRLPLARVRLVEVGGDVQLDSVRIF

In the case of “H-Leu-Asp-Ser-Val-Arg-Ile-Phe-NH2 (H-LDSVRIF-NH2; listed as Homo sapiens) [hGal-7(129-135), peptide corresponding to residues 129-135 of hGal-7]”, in the experiment with hGal-7/Bcl-2 heterodimer, the “amount of hGal-7/Bcl-2 heterodimers” value is recorded as “decreased”. Also, the “inhibition of hGal-7-induced apoptosis, Annexin V/PI staining” value in the experiment with Jurkat T cells is “confirmed”.

These data come from US11319374B2, “Inhibitors of prototypic galectin dimerization and uses thereof” (INSTITUT NATIONAL DE LA RECHERCHE SCIENTIFIQUE, priority 2015, dated 2022).
